{
  "source": "patent US20230227508A1",
  "about": "“SPLIT INTEIN-BASED SELECTION FOR PEPTIDE BINDERS” (priority 2020, published 2023)",
  "molecules": {"B1": {"name": "haloduracin A1 (peptide)", "chain": "MTNLLKEWKMPLERTHNNSNPAGDIFQELEDQDILAGVNGAENLYFQGCAWYNISCRLGNKGAYCTLTVECMPSCN"}, "B2": {"name": "haloduracin A2 (peptide)", "chain": "MVNSKDLRNPEFRKAQGLQFVDEVNEKELSSLAGSENLYFQGTTWPCATVGVSVALCPTTKCTSQC"}},
  "test_system": "Bacillus subtilis PY79",
  "assay": "Haloduracin agar spot assay on indicator strain",
  "assay_type": "cell-based",
  "details": "5 μL of cleaved, desalted core peptide in 1:1 methanol:water on LB-agar",
  "procedure": "To assay for antimicrobial activity, the cleaved and desalted core peptides were resuspended in 50 μL 1:1 methanol:water. Bacillus subtilis PY79 was used as indicator strain and was spread on a LB-agar surface, on which 5 μL of either or both haloduracins or a solvent control was added.",
  "data": [
    {"molecule": "B1", "values": [
      {"measurement": "antibacterial activity, growth inhibition on agar", "value": "minimal antibacterial activity"}
    ]},
    {"molecule": "B2", "values": [
      {"measurement": "antibacterial activity, growth inhibition on agar", "value": "minimal antibacterial activity"}
    ]}
  ]
}
